Columns and labels:
[1] = biological target: T1, phthalate dioxygenase (PDO) (Comamonas testosteroni, UniProt B7WQT1); assay: LC-MS product detection; format: biochemical; details: VanB reductase, 2 mM substrate, 500 µM NADH, 100 µM ferrous ammonium sulfate, 30 °C
T1 construct: gene CtesDRAFT_PD2022; codon-optimized, MBP tag removed with TEV protease, pMCSG9, E. coli C41(DE3); authors use structure PDB 7V25 (earlier work) for PDO residues
T1 sequence (B7WQT1 1-439): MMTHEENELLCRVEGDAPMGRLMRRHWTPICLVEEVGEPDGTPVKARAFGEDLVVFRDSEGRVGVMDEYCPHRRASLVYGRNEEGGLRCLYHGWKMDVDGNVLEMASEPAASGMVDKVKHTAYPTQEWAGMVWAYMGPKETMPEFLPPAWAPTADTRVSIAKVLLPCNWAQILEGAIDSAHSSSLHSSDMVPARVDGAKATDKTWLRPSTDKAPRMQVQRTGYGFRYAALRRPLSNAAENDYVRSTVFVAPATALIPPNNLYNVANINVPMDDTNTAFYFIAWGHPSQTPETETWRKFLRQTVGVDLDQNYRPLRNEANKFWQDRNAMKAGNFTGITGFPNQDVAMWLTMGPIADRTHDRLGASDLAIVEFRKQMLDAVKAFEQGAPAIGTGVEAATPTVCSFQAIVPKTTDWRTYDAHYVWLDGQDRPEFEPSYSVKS

[2] = substrate: Cc1cccc(C(=O)O)c1; assay: LC-MS product formation, Michaelis-Menten; format: biochemical, Comamonas testosteroni; details: apparent; VanB reductase (4:1), 500 µM NADH, O2, 100 µM ferrous ammonium sulfate
Excerpt: (§1) LC-MS product formation, Michaelis-Menten on TsaM (p-toluenesulfonate methyl-monooxygenase)

[3] = substrate: Cc1ccc(S(=O)(=O)O)cc1; assay: LC-MS product formation, Michaelis-Menten; format: biochemical, Comamonas testosteroni; details: apparent; VanB reductase (4:1), 500 µM NADH, O2, 100 µM ferrous ammonium sulfate
Excerpt: as §1

[4] = substrate: O=S(=O)(O)c1ccc(O)cc1; assay: LC-MS product formation, Michaelis-Menten; format: biochemical, Comamonas testosteroni; details: apparent; VanB reductase (4:1), 500 µM NADH, O2, 100 µM ferrous ammonium sulfate
Excerpt: as §1

[5] = substrate: CSc1ccc(C(=O)O)cc1; assay: LC-MS product formation, Michaelis-Menten; format: biochemical, Comamonas testosteroni; details: apparent; VanB reductase (4:1), 500 µM NADH, O2, 100 µM ferrous ammonium sulfate
Excerpt: as §1

[6] = substrate: Cc1ccc(N)cc1; assay: LC-MS product formation, Michaelis-Menten; format: biochemical, Comamonas testosteroni; details: apparent; VanB reductase (4:1), 500 µM NADH, O2, 100 µM ferrous ammonium sulfate
Excerpt: as §1

[7] = substrate: O=C(O)c1ccccc1; assay: LC-MS product formation, Michaelis-Menten; format: biochemical, Comamonas testosteroni; details: apparent; VanB reductase (4:1), 500 µM NADH, O2, 100 µM ferrous ammonium sulfate
Excerpt: as §1

[8] = substrate: Cc1ccc([N+](=O)[O-])cc1; assay: LC-MS product formation, Michaelis-Menten; format: biochemical, Comamonas testosteroni; details: apparent; VanB reductase (4:1), 500 µM NADH, O2, 100 µM ferrous ammonium sulfate
Excerpt: as §1

[9] = substrate: O=S(=O)(O)c1ccccc1; assay: LC-MS product formation, Michaelis-Menten; format: biochemical, Comamonas testosteroni; details: apparent; VanB reductase (4:1), 500 µM NADH, O2, 100 µM ferrous ammonium sulfate
Excerpt: as §1

[10] = substrate: CNc1ccc(C(=O)O)cc1; assay: LC-MS product formation, Michaelis-Menten; format: biochemical, Comamonas testosteroni; details: apparent; VanB reductase (4:1), 500 µM NADH, O2, 100 µM ferrous ammonium sulfate
Excerpt: as §1

[11] = substrate: COc1ccc(C(=O)O)cc1; assay: LC-MS product formation, Michaelis-Menten; format: biochemical, Comamonas testosteroni; details: apparent; VanB reductase (4:1), 500 µM NADH, O2, 100 µM ferrous ammonium sulfate
Excerpt: as §1

[12] = substrate: CCc1ccc(C(=O)O)cc1; assay: LC-MS product formation, Michaelis-Menten; format: biochemical, Comamonas testosteroni; details: apparent; VanB reductase (4:1), 500 µM NADH, O2, 100 µM ferrous ammonium sulfate
Excerpt: as §1

[13] = substrate: CC(C)c1ccc(C(=O)O)cc1; assay: LC-MS product formation, Michaelis-Menten; format: biochemical, Comamonas testosteroni; details: apparent; VanB reductase (4:1), 500 µM NADH, O2, 100 µM ferrous ammonium sulfate
Excerpt: as §1

purified protein [14] = substrate: Cc1ccc(C(=O)O)cc1; assay: purified protein; details: apparent; VanB reductase (4:1), 500 µM NADH, O2, 100 µM ferrous ammonium sulfate
purified protein [15] = substrate: O=C(O)c1ccc(O)cc1; assay: purified protein; details: apparent; VanB reductase (4:1), 500 µM NADH, O2, 100 µM ferrous ammonium sulfate

**Q.** Which LC-MS product detection [1] does the source give for `O=C(O)c1ccccc1` [compound 38, benzoate] here?
**A.** Its LC-MS product detection is “PDO-VanB system catalyzes a dioxygenation reaction to transform benzoate”.

B1: TsaM (p-toluenesulfonate methyl-monooxygenase) (Comamonas testosteroni) (protein)
chain: MFIRNCWYVAAWDTEIPAEGLFHRTLLNEPVLLYRDTQGRVVALENRCCHRSAPLHIGRQEGDCVRCLYHGLKFNPSGACVEIPGQEQIPPKTCIKSYPVVERNRLVWIWMGDPARANPDDIVDYFWHDSPEWRMKPGYIHYQANYKLIVDNLLDFTHLAWVHPTTLGTDSAASLKPVIERDTTGTGKLTITRWYLNDDMSNLHKGVAKFEGKADRWQIYQWSPPALLRMDTGSAPTGTGAPEGRRVPEAVQFRHTSIQTPETETTSHYWFCQARNFDLDDEALTEKIYQGVVVAFEEDRTMIEAHEKILSQVPDRPMVPIAADAGLNQGRWLLDRLLKAENGGTAP
notes: codon-optimized, N-terminal His-tag with TEV site, E. coli C41(DE3), trimer ~120 kDa; assayed with VanB as non-native reductase
**Q.** With B1 as the molecule, how does the Km [2] read?
**A.** The Km was 100 ± 4.2 µM.

**Q.** And the Vmax [2]?
**A.** The Vmax was 3.1 µM/min.

**Q.** And the kcat [2]?
**A.** The kcat was 0.0267 ± 0.00617 s⁻¹.

**Q.** What about the kcat/Km [2] of the same molecule?
**A.** The kcat/Km was 260 ± 50 M⁻¹ s⁻¹.

**Q.** What about the Km [3] of the same molecule?
**A.** Its Km is 3.8 ± 0.60 µM.

**Q.** What about the Vmax [3] of the same molecule?
**A.** The Vmax was 6.2 µM/min.

**Q.** What about the kcat [3] of the same molecule?
**A.** The kcat was 0.05 ± 0.00367 s⁻¹.

**Q.** What about the kcat/Km [3] of the same molecule?
**A.** Its kcat/Km is 13000 ± 2200 M⁻¹ s⁻¹.

**Q.** And the Km [4]?
**A.** The Km was 80 ± 2.8 µM.

**Q.** What about the Vmax [4] of the same molecule?
**A.** Its Vmax is 1.3 µM/min.

**Q.** And the kcat [4]?
**A.** Its kcat is 0.011 ± 0.00167 s⁻¹.

**Q.** And the kcat/Km [4]?
**A.** Its kcat/Km is 130 ± 22 M⁻¹ s⁻¹.

**Q.** And the Km [5]?
**A.** Its Km is 240 ± 2.5 µM.

**Q.** And the Vmax [5]?
**A.** Its Vmax is 2.6 µM/min.

**Q.** What about the kcat [5] of the same molecule?
**A.** The kcat was 0.0217 ± 0.00267 s⁻¹.

**Q.** And the kcat/Km [5]?
**A.** Its kcat/Km is 88 ± 14 M⁻¹ s⁻¹.

**Q.** What about the Km [6] of the same molecule?
**A.** The Km was 110 ± 7.7 µM.

**Q.** What about the Vmax [6] of the same molecule?
**A.** Its Vmax is 3.2 µM/min.

**Q.** What about the kcat [6] of the same molecule?
**A.** The kcat was 0.0267 ± 0.00233 s⁻¹.

**Q.** And the kcat/Km [6]?
**A.** Its kcat/Km is 230 ± 21 M⁻¹ s⁻¹.

**Q.** What about the Km [7] of the same molecule?
**A.** The Km was 80 ± 1.5 µM.

**Q.** And the Vmax [7]?
**A.** Its Vmax is 1 µM/min.

**Q.** What about the kcat [7] of the same molecule?
**A.** Its kcat is 0.00867 ± 0.00217 s⁻¹.

**Q.** And the kcat/Km [7]?
**A.** The kcat/Km was 99 ± 20 M⁻¹ s⁻¹.

**Q.** And the Km [8]?
**A.** The Km was 230 ± 12 µM.

**Q.** And the Vmax [8]?
**A.** Its Vmax is 2.9 µM/min.

**Q.** What about the kcat [8] of the same molecule?
**A.** The kcat was 0.0233 ± 0.00417 s⁻¹.

**Q.** What about the kcat/Km [8] of the same molecule?
**A.** Its kcat/Km is 100 ± 16 M⁻¹ s⁻¹.

**Q.** And the Km [9]?
**A.** Its Km is 76 ± 3.6 µM.

**Q.** And the Vmax [9]?
**A.** Its Vmax is 1.1 µM/min.

**Q.** And the kcat [9]?
**A.** The kcat was 0.00967 ± 0.00333 s⁻¹.

**Q.** What about the kcat/Km [9] of the same molecule?
**A.** The kcat/Km was 120 ± 47 M⁻¹ s⁻¹.

**Q.** What about the Km [10] of the same molecule?
**A.** The Km was 240 ± 11 µM.

**Q.** What about the Vmax [10] of the same molecule?
**A.** The Vmax was 3.2 µM/min.

**Q.** What about the kcat [10] of the same molecule?
**A.** The kcat was 0.0267 ± 0.00217 s⁻¹.

**Q.** What about the kcat/Km [10] of the same molecule?
**A.** Its kcat/Km is 110 ± 8.8 M⁻¹ s⁻¹.

**Q.** What about the Km [11] of the same molecule?
**A.** The Km was 180 ± 8.9 µM.

**Q.** What about the Vmax [11] of the same molecule?
**A.** Its Vmax is 3.3 µM/min.

**Q.** And the kcat [11]?
**A.** Its kcat is 0.0267 ± 0.00417 s⁻¹.

**Q.** And the kcat/Km [11]?
**A.** Its kcat/Km is 150 ± 20 M⁻¹ s⁻¹.

**Q.** And the Km [12]?
**A.** Its Km is 65 ± 3.8 µM.

**Q.** And the Vmax [12]?
**A.** The Vmax was 7.3 µM/min.

**Q.** What about the kcat [12] of the same molecule?
**A.** Its kcat is 0.06 ± 0.00567 s⁻¹.

**Q.** What about the kcat/Km [12] of the same molecule?
**A.** Its kcat/Km is 930 ± 95 M⁻¹ s⁻¹.

**Q.** What about the Km [13] of the same molecule?
**A.** The Km was 150 ± 6.5 µM.

**Q.** What about the Vmax [13] of the same molecule?
**A.** Its Vmax is 4.1 µM/min.

**Q.** What about the kcat [13] of the same molecule?
**A.** Its kcat is 0.035 ± 0.00433 s⁻¹.

**Q.** And the kcat/Km [13]?
**A.** Its kcat/Km is 230 ± 24 M⁻¹ s⁻¹.

**Q.** And the Km (purified protein [14])?
**A.** Its Km is 13 ± 1.3 µM.

**Q.** What about the Vmax (purified protein [14]) of the same molecule?
**A.** Its Vmax is 11 µM/min.

**Q.** What about the kcat (purified protein [14]) of the same molecule?
**A.** The kcat was 0.0933 s⁻¹.

**Q.** And the kcat/Km (purified protein [14])?
**A.** Its kcat/Km is 7200 M⁻¹ s⁻¹.

**Q.** And the Km (purified protein [15])?
**A.** The Km was 86 ± 2.1 µM.

**Q.** And the Vmax (purified protein [15])?
**A.** The Vmax was 1 µM/min.

**Q.** And the kcat (purified protein [15])?
**A.** The kcat was 0.00833 s⁻¹.

**Q.** And the kcat/Km (purified protein [15])?
**A.** The kcat/Km was 98 M⁻¹ s⁻¹.

From publication PMC10511449, “Custom tuning of Rieske oxygenase reactivity” (Nature Communications, 2023)
